{
  "source": "patent US20100297703A1",
  "about": "(published 2010)",
  "binders": {"B1": {"name": "YoeB-3×FLAG protein (other)", "chain": "KNTSGDLSQKQALQLALSAREHFWNTMSGHNPKVKKAVCPSGTFEYQNLQYVYMCSDLGTKAKAVNYLTPIFTKTAIEKGFKDYHFTVSKGKLAVPIGDGDNLLNWKKSTAKLISKKGSTITYEFTVPTLDGSPSAKRKVTFVKENKKWKVNQFDAVI", "notes": "Expressed in B. subtilis WE1 from pCA3FLYoeB with IPTG, extracted from the cell surface with LiCl and purified on anti-FLAG M2 gel; also called YoeB protein (bait from the WE1YoeB3FL strain); not shown: 3×FLAG tag"}},
  "test_in_all_cases": "anti-FLAG purification of YoeB-3×FLAG from cell surface extract, SDS-PAGE band integration of the co-purified protein",
  "key": {"CwlF protein": {"molecular_target": "T1, CwlF protein (Bacillus subtilis, UniProt P54421 26-334)", "T1 construct": "Endogenous protein of the WE1YoeB3FL strain, co-purified with YoeB-3×FLAG", "T1 sequence (P54421 26-334 limits assumed)": "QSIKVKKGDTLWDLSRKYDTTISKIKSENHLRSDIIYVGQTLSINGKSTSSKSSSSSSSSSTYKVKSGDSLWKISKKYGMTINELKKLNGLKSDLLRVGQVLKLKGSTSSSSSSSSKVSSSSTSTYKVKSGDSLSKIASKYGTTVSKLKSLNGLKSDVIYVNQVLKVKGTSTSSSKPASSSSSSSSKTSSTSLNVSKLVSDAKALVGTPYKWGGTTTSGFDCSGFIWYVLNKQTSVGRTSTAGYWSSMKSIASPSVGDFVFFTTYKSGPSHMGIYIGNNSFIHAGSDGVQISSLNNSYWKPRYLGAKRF", "experimental": "(§1) After the pre-culture, the pre-cultured strain was inoculated in 50 ml of LB liquid medium to bring the OD₆₀₀ value to 0.01, and main culture was conducted until the OD₆₀₀ value reached 2.0. After the completion of the culture, the culture solution was centrifuged at 10,000 rpm for 10 minutes. The supernatant was removed and the precipitate was washed with 25 mM Tris-HCl (pH 7.2). The washed precipitate was suspended in 3M LiCl (25 mM Tris-HCl, pH 7.2) to a density of 10 μl/OD, and the suspension was allowed to stand on ice for 20 minutes. Thereafter, centrifugation was carried out at 4° C. and 10,000 rpm for 10 minutes. The supernatant was recovered, TCA (trichloroacetic acid) was added to a final concentration of 5%, the mixture was thoroughly mixed, and the resulting suspension was allowed to stand on ice for 60 minutes. Thereafter, centrifugation was carried out at 4° C. and 15,000 rpm for 5 minutes. The supernatant was removed, and the precipitate was rinsed with 70% ethanol to thoroughly remove TCA. Thus, outer surface proteins were extracted from the WE1YoeB3FL strain and the WE1E3FL strain, respectively.\n(§2) The mixture was mildly (8 rpm) agitated at 4° C. for 1 hour. Thereafter, centrifugation was carried out at 5,000 rpm for 1 minute. The supernatant was removed while carefully refraining from suctioning the precipitated gel. Thereafter, 500 μl of TBS buffer was added to prepare a suspension. Thereafter, the gel was transferred to the Spin Column (Micro Bio Spin Chromatography Columns (BIO RAD)), and the gel was trapped via centrifugation at 1,000 g for 30 seconds. Thereafter, the resultant was washed three times with 500 μl of TBS buffer. Subsequently, 100 μl of Glycine HCl elution buffer (0.1M glycine-HCl) was sequentially added thereto and thoroughly agitated. Elution was carried out 1 minute later at 1,000 g for 30 seconds, and this procedure was repeated two times. The products were combined to prepare an eluted solution.\n(§3) Subsequently, the band pattern of the resulting eluted solution was inspected via SDS-PAGE. Electrophoresis was carried out by charging proteins in amounts corresponding to the amount extracted from the cells (OD₆₀₀=200) to the relevant lanes."}, "CwlE protein": {"molecular_target": "T2, CwlE protein (Bacillus subtilis, UniProt O07532 27-488)", "T2 construct": "Endogenous protein of the WE1YoeB3FL strain, co-purified with YoeB-3×FLAG", "T2 sequence (O07532 27-488 limits assumed)": "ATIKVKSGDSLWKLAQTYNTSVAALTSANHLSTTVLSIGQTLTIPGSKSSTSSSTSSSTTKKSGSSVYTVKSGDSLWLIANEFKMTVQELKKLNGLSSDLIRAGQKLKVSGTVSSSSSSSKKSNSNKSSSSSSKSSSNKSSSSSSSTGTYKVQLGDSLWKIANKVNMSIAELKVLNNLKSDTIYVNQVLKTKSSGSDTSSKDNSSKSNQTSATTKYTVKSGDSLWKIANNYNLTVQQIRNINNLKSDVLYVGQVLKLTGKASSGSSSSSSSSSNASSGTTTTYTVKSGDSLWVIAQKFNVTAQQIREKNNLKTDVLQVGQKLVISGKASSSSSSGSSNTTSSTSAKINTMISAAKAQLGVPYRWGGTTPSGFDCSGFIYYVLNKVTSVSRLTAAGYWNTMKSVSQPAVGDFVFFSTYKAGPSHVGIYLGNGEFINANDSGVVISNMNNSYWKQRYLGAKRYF", "experimental": "as §1, §2, §3"}, "YojL protein": {"molecular_target": "YojL protein (Bacillus subtilis, UniProt O31852 27-414)", "experimental": "as §1, §2, §3"}},
  "data": [
    {"binder": "B1", "values": [
      {"measurement": "Integrated value", "setting": "CwlF protein", "value": 1250},
      {"measurement": "Integrated value/Molecular weight", "setting": "CwlF protein", "value": 0.03},
      {"measurement": "Proportion relative to YoeB (1)", "setting": "CwlF protein", "value": 0.05},
      {"measurement": "Integrated value", "setting": "CwlE protein", "value": 30100},
      {"measurement": "Integrated value/Molecular weight", "setting": "CwlE protein", "value": 0.59},
      {"measurement": "Proportion relative to YoeB (1)", "setting": "CwlE protein", "value": 0.89},
      {"measurement": "Integrated value", "setting": "YojL protein", "value": 989},
      {"measurement": "Integrated value/Molecular weight", "setting": "YojL protein", "value": 0.02},
      {"measurement": "Proportion relative to YoeB (1)", "setting": "YojL protein", "value": 0.03}
    ]}
  ]
}
